Data reported in the nanobody polyreactivity screen of Harvey et al. (2022).

Assay: yeast display, Sf9 membrane polyspecificity reagent, FACS + sequencing; frameworks hold sequencing errors
Procedure, shortened: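 Galactose induction of a Saccharomyces cerevisiae BJ5465 synthetic nanobody display library ran 36–48 hours. The cells were then stained for 1 hour at 4 °C with 10% biotinylated, detergent-solubilized Sf9 membrane reagent, pulled down on streptavidin microbeads and FACS-sorted into low and high (top ~1%) gates on expression and reagent-binding fluorescence. Labels for polyreactivity follow the gate of origin.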

| Sequence | polyreactivity (PSR sort gate) |
| --- | --- |
| QVQLVESGGGIVQAGGSLRLSCAASGSTLNSYVMGWYRQAPGKERELVATIRSGSSTNYADSVKGRFTISRDNAKYPDYLLMNSLKPEDTAVYSCAADAYSLCYDSWGQGTQVTVSS | low polyreactivity |
| QVQLVESGGGIVQAGGSLRLSCAASVFTFLHNTMGWYRQAPGKERELVAAISIGGRTYYADSVKGRFTISRDIAKKTVYLQMNSLKPEDTAVYYCAKLSGGQSPGYDYWGQGTQVTVSS | high polyreactivity |
| QVQLVESGGGIVQAGGSLRLSCAATGRIFTGYTMGWYRQAPGKERELVAAISQSGGRTYYADSVKGRFTISRDNAKHTVYLQMNSLKPEDTAVYYCAAVWSRTGYDYCGQGTQVTVSS | high polyreactivity |
| QVQLVESGGGIVQAGGSLRLSCAGSGSIVSGYTMGWYRQEPGKERELVAAITRSGGRTYYADSVKGRFTISRDYAKNTVYLQMNSLKPEDTSVYYCAAVDRRGANYNYWGQGTQVTVSS | high polyreactivity |
| QVQLVESGGGIVQAGGSLRLSCDASGSIFNYYTMGWYRQEPGKERELVAAISYRGGRTYYADSVKGRFTISRDNAKNTVYLQMNSLKPEDTAVYYCAAGWLLYVFFPREYYYWGQGTQVTVSS | high polyreactivity |
| QVQLVESGGGIVQAGGSLRLSSAASGRTFYVYTMGWYRQAPGKERELVAAITSGGSTNYADSVKGRFKISRDNAKNTVYLQMNSLKPEDTAVYYCAARFSTVFKRYYYWGQGTQLTVSS | high polyreactivity |
| QVQLVESGGGIVQAGGSLRLSWAASGRNFYRNAMGWYRQAPGKERELVAAISRSGGSTYYADSVKGRFTISRDNAKNTVYLQMNSLKAADTAVYYFNAYRYLQSGPPRYREHGSWGQGTQVNVSS | low polyreactivity |
| QVQLVESGGGIVQAGGSLSLRCAASGRIFITNAMGWNRQAPGKERELVAAIRRRGGNTYYADSVKGRFTISRDNGKNTVYLLMNSLKPEDSAVYYCAVYPRPYNYNYWGQGTQVTVSS | high polyreactivity |
| QVQLVESGGGIVQAGVSLRLSCAASGSTFWDNDMGWYRPAPGKERELVAVISWDDGSTYYADSVKGRFTISRDNAKNTVYLQMNSLKPEDTAVYYCAADAYYALFPSWTVGDCPYYYWGQGTQVTVSS | high polyreactivity |
| QVQLVESGGGIVQEGGSLRLSCAASGRTFGLNVMGWYRQAPGKERELVATISWSGGTTYYADSVKGRYTISRDNAKNTVYFQMKSLKPEDTGVYYCNRQVTWYPTGGYWGQGTQVTVSS | low polyreactivity |
| QVQLVESGGGIVQSGGSLRLSCDASGFIFGGNAMGWYIQAPGKERELVARISSGGITSYADSVKGRFTISRDNAKNTVYLHMNSQKPDDTAVYYCAARNGRIAWMNYWGQGTQVTVSS | low polyreactivity |
| QVQLVESGGGKVQAGGSLRLSCAASGNTFTSNALGWYRQAPGKERELVAAISISGSTNYADSVKGRFTISRDNAKNSVYLQMNSLKPEDTAVYSCAARVGYTAWRRYNYWGQGTQVTVSS | high polyreactivity |
| QVQLVESGGGKVQEGGSLRLSCAASGRTLAPYAMGWYRQAPGKERELVAISTIGGTTYYADSVKGRFTISRDNAKNTVYLQMNSLKPEDTAVYYGAADGNSTGVYLDGGEGFAYDYWGQGTQVTVSS | low polyreactivity |
| QVQLVESGGGLAQAGGSLRLSCAASGLIFYYNAMGWYRQAPGKERELVAAISSSGGRTYYADSVKGRFTISRDNAKNTVYLQMNSLKPEDTAVYYCAATSYGYGSRYDYWGQGTQVTVSS | high polyreactivity |
| QVQLVESGGGLAQAGGSLRLSCAASGRIFSVNVMGWYRQAPGKERELVAAITWSVGSTYYADSVKGRFTISRDNAKNTVYLQMNSLKPEDTAVFYCAARVPPVYGRVGGYHYWGQGTQVTVSS | low polyreactivity |
| QVQLVESGGGLDLAGGSLRLSCAASGRTCGYNAMGWYRQAPGKERELVATISWGGGSTYYADSVKGRFTISRDNAKNSVYLQMNSLKPEDTAVYYCNKVHYGRRHSYSGAIYGEDYWGQGTQVTVSS | high polyreactivity |
| QVQLVESGGGLDPAGGSLRLSCAASGSTFQYNAKGWYRQAPGKERELVAAISGSGGSTYYADSVKGRFTISRDNAKNTVYLQMNSLKPEDTAVYYCNADVSALWWPEEWYNASEFDYWGQGTQVTVSS | low polyreactivity |
| QVQLVESGGGLDQAEGSLRLSCAASGSKINHYARGWYRQAPRKERELVAAITKSGGSTYADSVKGRFTISRDNAKNTVYLKMNSRKPEDTAVYYCAAGRRIYGTKGRGDYWGQGTQVTVSS | low polyreactivity |
| QVQLVESGGGLDQAGGRLRLSCAASGFTFNYNAMGWYRQATGKERELVAAISRSGGRTYYADSVKGRFTISRDNAKNTVYLQMNSLKPEDTAVYYCAADSGTNGYDYWGQGTQVTVSS | high polyreactivity |
| QVQLVESGGGLDQAGGSHRLSCAASGRIFTYNAIGWYRQAPGKERELVAAISRRGGTTYYADSVKGRFTISRDNAKNTVYLQMNSLKPEDTAVYYCAAVVFTRGVTSRTVSRYDYWGQGTLVTVSS | high polyreactivity |
| QVQLVESGGGLDQAGGSLPLSCAASGLTFSSYAMGWYRQAPGKESELVATITSSGGDNTNYADSVKGRFTISRDNAKNTVYLQMNSLKPEDTAVYYCNKEGQQSYRWRMDYWGQGTQVTVSS | low polyreactivity |
| QVQLVESGGGLDQAGGSLRLICAASGSTFRYNAMGWYRQAPGKERELVAAISSSGGSTRYADSVKGRFTISRDNAKNTVYLQMNSLKPEDTAVYYCAVRFYDWRYYYWGQGTQVTVSS | high polyreactivity |

| Sequence | polyreactivity (PSR sort gate) |
| --- | --- |
| QVQLVESGGGLDQAGGSLRLICAASGTTFSPYAMGWYRQAPGKQRELGANITISGGSTFYADSVKGRFTISRDYAKNTDYLQMKSLKPEDTAVDYCNADSLIRWLFTVVIFDYCGQGTQVTVSS | low polyreactivity |
| QVQLVESGGGLDQAGGSLRLSCAACGIIFYVYDMGGYRQAPGKERELVPISGSSTYYADSVKGRFTISRDNAKNSVYLQMNSLKPEDTAVYYWSADGVELYDYWGQGTQVTVSS | low polyreactivity |
| QVQLVESGGGLDQAGGSLRLSCAASGFIFAYNTMGWYRQAPGKERELVATIRWSGGRTYYADSVKGRFTISRDNAKNSVYLQMNSLKPEDTAVYYCAKRAFSYVGGQQDRKENYYYWGQGTQVTVSS | high polyreactivity |
| QVQLVESGGGLDQAGGSLRLSCAASGFIFTVYAMGWYRQAPGKEREVVAAISSGGSTYYADSVKGRFTISRDNAKNTVYLQMNSLKPEDTADYYCAAQPSYRYYKSYDSWGQGTQVTVSS | high polyreactivity |
| QVQLVESGGGLDQAGGSLRLSCAASGFTFAYNARGRYRQAPGKERELVAAITTRGGGTYYADSVKGRFTISRDNAKYTVYLQMNSLKPEDTAVYYCAAKKSRYPYNYWGQGTQVTVSS | high polyreactivity |
| QVQLVESGGGLDQAGGSLRLSCAASGFTFVDYDIGWYRQATGKERELVAAITYSGGSTSYADSVKGRFTISRDNSKTTFYLQMNSLKPEDTAVYYCAGEPVGEIMDYWGQGTQVTVSS | low polyreactivity |
| QVQLVESGGGLDQAGGSLRLSCAASGIIFYVNDMGWYRQAPGKERELVADISGGTSTNYADSVKGRFTISRDNAKNTVYLQMNSLKPEDTAVYYCATAFIVPFPGSDYCGQGTQVTVSS | low polyreactivity |
| QVQLVESGGGLDQAGGSLRLSCAASGITVTSYVMGWYRQAHWKERELVAAIRWSGGRTYYADSVKGRFTISRDNAKNTVYLQMNSLKPEDTAVYYCNRVTRSHVDYWGQGTQVTVSS | high polyreactivity |
| QVQLVESGGGLDQAGGSLRLSCAASGKTFGNYGMGWYRQAPGKERELVAAISWTGGSTYYADSVKGRFTISRDNAKNTVYLQMNSMKPEDTAVYSCNKRPYLLFDYWGQGTQVTVSS | high polyreactivity |
| QVQLVESGGGLDQAGGSLRLSCAASGLIFYTYAMGWYRQAPGKERELVADINRSDGSTYYADSVKGRFTISRDNAKNTVYLQMNSLKPEDTAVYYCAVVGTYYSRFGGRYYYWGQGTQVTVSS | low polyreactivity |
| QVQLVESGGGLDQAGGSLRLSCAASGRIFGRNAMGWYRQAPGKERELVAAITWSGGSTNYADSVKGRFTISRDNAKNTVYLEMNSLKPEDTAFYYCAKRYTPRPYKGICYYYWGQGTQVTVSS | high polyreactivity |
| QVQLVESGGGLDQAGGSLRLSCAASGRIFSPNAMGWYRQAPGKERELVAAISRIGGRTYYADSVKGRFTISRDNAKNTVYLQMNSLKPEDTGVFYCNVVATHTDFTYDFWGQGTQVTVSS | high polyreactivity |
| QVQLVESGGGLDQAGGSLRLSCAASGRILRGYVMGWYRQAPGKERELVATITGRGGSTYYADSVKGRFTISRDNAKNSVYLQMNSLKPEDPAVYYCNKDGYPYFGRSESWGQGPQVTVSS | low polyreactivity |
| QVQLVESGGGLDQAGGSLRLSCAASGRTFADYAMGWYRQAPGNERELVADISKRGGSTYFADSVKGRFTISRDNAKNTFYLQMNSLKAEDTAVYYCAAGWYYYPTFYKVKSYNYWGQGTQVTVSS | high polyreactivity |
| QVQLVESGGGLDQAGGSLRLSCAASGRTFIRNVMGWYRQAPGKERELVAGITGGGNTYYADSVKGRFTISRDNAKNTVYLQMNSLKPEDTAVYYCAVRYPSYGLSYVRYGYWGQGTQVTVSS | high polyreactivity |
| QVQLVESGGGLDQAGGSLRLSCAASGRTFKWNAIGWYRQAHGKERELVASITSGGSTNYADSVKGRFTISRDNAKNTVYLQMNSLKPEDTAVYYCNAEYYLFKRPYSYYYWGQGTQVTVSS | low polyreactivity |
| QVQLVESGGGLDQAGGSLRLSCAASGRTFTEYAMGWYRQAPGKERELVARISIGDSTYYADSVKGRFTISRDNAKNTDYLQMNSLKPEDTAVYYCNAEYSRSYRYDEGYWGQGTQVTVSS | low polyreactivity |
| QVQLVESGGGLDQAGGSLRLSCAASGRTFVYYALGWYRQAPRQERELVAAITWSGGRTYYADSVKGRFTISRDNAKNTVYLQMNSLKPEDTAVYYCNRDQWAWESGYAYNYCGQGTQVTVSS | low polyreactivity |
| QVQLVESGGGLDQAGGSLRLSCAASGRTFYIYTMGWYRQAPGKERELVAAISSSGDSTYYADSVKGRFTISRDNGKNTVYLQMNSLKPEDTAVYYCAAYATYPDEYWGEGTQVTVSS | low polyreactivity |
| QVQLVESGGGLDQAGGSLRLSCAASGRTFYYNAMGWYRQAPGKERELVADINWSGVRTYYADSVKGRFTISRDNAKNTVYLQMNSLKPEDTAVYYCAARYRTLTKYYWGQGTQVTVSS | low polyreactivity |
| QVQLVESGGGLDQAGGSLRLSCAASGSIFDSNAMGWYRQAPGKERELVAAISLSGGSTYYADSVKGRFTISRDNAKNTVYLQMNSLKPEDTAVYYCAKDGWYEYYWGQGTQVTVSS | low polyreactivity |
